Where two headings read alike, the source gives them in different places.
How the values were obtained:
[1] = system: macrophages; assay: Intracellular Ca2+ mobilization (Indo-1 AM), macrophages; format: cell-based, mouse; conditions: 50 nM
[2] = system: mouse peritoneal macrophages; assay: P. gingivalis phagocytosis and receptor expression by flow cytometry; format: cell-based
Description: First, experiments were performed to determine the effect of C5a (50 nM) or C3a (200 nM) on P. gingivalis phagocytosis by unprimed or IFN-γ-primed mouse peritoneal macrophages (FIG. 6A). The phagocytic index was calculated following a 30-min incubation using the following formula: % positive cells for fluorescently labeled P. gingivalis×MFI/100 (extracellular fluorescence was quenched prior to flow cytometry). Mouse macrophages were incubated at 37° C. for 30 min (B) or 24 hours (C) with medium, C5a (50 nM) only, or P. gingivalis (MOI=10:1) with or without C5a (50 nM). The expression levels of the indicated receptors, which coordinately mediate P. gingivalis uptake, were determined by flow cytometry after cell staining with appropriate fluorescently labeled antibodies (FIGS. 6B and 6C). The 30-min time point was examined to determine possible induced surface expression of preformed receptors from intracellular pools. […] Mouse-specific mAbs to TLR2 (clone 6C2), TLR1 (TR23), CD14 (Sa2-8), CD11b (M1/70), and CD18 (M18/2) were obtained from e-Bioscience.

[3] = system: IL-6 production; assay: IL-6 ELISA in P. gingivalis-stimulated macrophages; format: cell-based, mouse; conditions: C5a 50 nM, 5 or 24 hours
Description: Mouse peritoneal macrophages were incubated for 5 or 24 hours at 37° C. with P. gingivalis (Pg; MOI=10:1) in the presence or absence of C5a (50 nM), and culture supernatants were assayed for IL-6 by ELISA.

[4] = system: IL-12p70 production; assay: IL-12p70 induction in IFN-gamma-primed macrophages, ELISA; format: cell-based, mouse
Description: Induction of nitric oxide production was assessed by measuring the amount of NO2− (stable metabolite of nitric oxide) in stimulated culture supernatants using a Griess reaction-based assay kit (R&D Systems), as previously performed (Hajishengallis et al., 2008, PNAS USA, 105:13532-7). Levels of cAMP in activated cell extracts were measured using a cAMP enzyme immunoassay kit (Cayman Chemical) (Liang et al., 2007, J. Immunol., 178:4811-9). C5a-induced intracellular calcium mobilization was monitored in cells (4×10^6) loaded with 1 μM Indo 1-AM in the presence of 1 μM pluronic acid, as previously described (Ali et al., 1993, J. Biol. Chem., 268:24247-54). Calcium traces were recorded in a Perkin-Elmer fluorescence spectrometer (Model 650-19) with an excitation wavelength of 355 nm and an emission wavelength of 405 nm. Induction of cytokine production in activated cell culture supernatants or in the peritoneal fluid of infected mice was determined by ELISA using kits from eBioscience or Cell Sciences. C5a levels were measured by sandwich ELISA, employing a pair of capture and biotinylated anti-05a mAbs (BD Pharmingen), according to the manufacturer's protocol.
Whether C5a inhibits P. gingivalis-induced IL-12p70 in peritoneal macrophages was investigated. Since macrophages are generally poor producers of IL-12p70 in vitro unless primed with IFN-gamma, macrophages used in these experiments were primed with IFN-gamma (0.1 μg/ml). […] The host TLR response against P. gingivalis is predominantly mediated by TLR2, both in vitro and in vivo. Therefore, whether C5a-mediated inhibition of P. gingivalis-induced IL-12p70 could involve a C5aR-TLR2 crosstalk additionally was examined.

[5] = system: negative regulators of TLR signaling; assay: Expression of negative regulators of TLR signaling, quantitative real-time PCR; format: cell-based, mouse; conditions: C5a 50 nM, 4 hours
Description: Gene expression in resting or activated mouse macrophages was quantified using quantitative real-time PCR. Briefly, RNA was extracted from cell lysates using the PerfectPure RNA cell kit (5 Prime, Fisher) and quantified by spectrometry at 260 and 280 nm. The RNA was reverse-transcribed using the High-Capacity cDNA Archive kit (Applied Biosystems) and quantitative real-time PCR with cDNA was performed using the ABI 7500 Fast System, according to the manufacturer's protocol (Applied Biosystems). TaqMan probes, sense primers, and antisense primers for expression of a house-keeping gene (GAPDH) or iNOS (or the genes shown in FIG. 7) were purchased from Applied Biosystems.
Supplemental experiments also examined the relative expression of negative regulators of TLR signaling in P. gingivalis-stimulated macrophages in the absence or presence of C5a. Mouse macrophages were stimulated with P. gingivalis (Pg; at a MOI=10:1) or medium control, in the presence or absence of 50 nM of C5a, and incubated for 4 hours. Quantitative real-time PCR (ABI 7500 Fast System; Applied Biosystems) was used to determine mRNA expression levels for the indicated molecules (normalized against GAPDH mRNA levels), which are shown in FIG. 7.

[6] = system: human neutrophils; assay: In vitro killing of Pg and oxidative burst by human neutrophils; format: cell-based; conditions: presence of C5a
Description: (§1) To directly implicate neutrophils in this evasion mechanism, in vitro experiments were performed. It was shown that the ability of mouse or human neutrophils (purified from peripheral blood5 collected under IRB approval) to kill Pg was inhibited in the presence of C5a in a C5aR-dependent manner, whereas their oxidative burst response was enhanced.

[7] = system: nitric oxide production; assay: NO2− (nitric oxide) production, Griess reaction-based assay, macrophages; format: cell-based, mouse; conditions: for inhibiting nitric oxide, C5a vs C5a^desArg: 24 h
[8] = system: intracellular cAMP; assay: cAMP enzyme immunoassay in P. gingivalis-stimulated macrophages; format: cell-based, mouse; conditions: for elevating cAMP, C5a vs C5a^desArg: 1 h
[9] = system: phagocytosed P. gingivalis in mouse peritoneal macrophages; format: cell-based, P. gingivalis ATCC 33277; conditions: for promoting intracellular survival, C5a vs C5a^desArg: 24 h
Description: The viability of phagocytosed P. gingivalis was monitored by an antibiotic protection-based intracellular survival assay, as previously described (Wang et al., 2007, J. Immunol., 179:2349-58). Briefly, mouse peritoneal macrophages were allowed to phagocytose P. gingivalis (MOI=10:1; 5×10^6 bacteria and 5×10^5 cells) for […] at 37° C. This was followed by washing to remove extracellular nonadherent bacteria and 1-hour treatment with antibiotics (300 μg/ml gentamicin and 200 μg/ml metronidazole) to eliminate residual or extracellular adherent bacteria. The macrophages were subsequently cultured overnight (for a total of 24 hours) or for 48 hours Immediately after, the macrophages were washed and lysed in sterile distilled water, and viable counts of internalized P. gingivalis were determined by plating serial dilutions of macrophage lysates on blood agar plates subjected to anaerobic culture.
The viability of phagocytosed P. gingivalis was monitored by an antibiotic protection-based intracellular survival assay, as previously described (Wang et al., 2007, J. Immunol., 179:2349-58)). Briefly, mouse peritoneal macrophages were allowed to phagocytose P. gingivalis (at a MOI=10:1; 5×10^6 bacteria and 5×10^5 macrophages) for 30 min at 37° C. This was followed by washing to remove extracellular nonadherent bacteria and 1-hour treatment with antibiotics (300 μg/ml gentamicin and 200 μg/ml metronidazole) to eliminate residual or extracellular adherent bacteria. The macrophages were subsequently cultured overnight for a total of 24 hours Immediately after, the macrophages were washed and lysed in sterile distilled water and viable counts of internalized P. gingivalis were determined by plating serial dilutions of macrophage lysates on blood agar plates subjected to anaerobic culture.

[10] = system: mouse neutrophils; assay: In vitro killing of Pg and oxidative burst by mouse neutrophils; format: cell-based; conditions: presence of C5a
Description: as §1

[11] = system: neutrophils; assay: Intracellular Ca2+ mobilization (Indo-1 AM), neutrophils; format: cell-based, mouse
[12] = system: GSK3β Ser9-phosphorylation; assay: GSK3β Ser9 phosphorylation ELISA in macrophages; format: cell-based, mouse; conditions: C5a 50 nM without Pg
Description: PKA activity in lysates of activated cells was determined using the ProFluor™ PKA assay, according to the instructions of the manufacturer (Promega) (Hajishengallis et al., 2008, PNAS USA, 105:13532-7). Phosphorylation of GSK313 on Ser9 and total GSK3β were monitored using FACE™ GSK3β ELISA kits (Active Motif).

[13] = system: macrophages
Description: Thioglycollate-elicited macrophages were isolated from the peritoneal cavity of wild-type or mice deficient in TLR2, TLR4, C3aR, or C5aR (The Jackson Laboratory) (Zhang et al., 2007, Blood, 110:228-36; Gajishengallis et al., 2006, Cell. Microbiol., 8:1557-70), in compliance with established federal guidelines and institutional policies. The macrophages were cultured at 37° C. and 5% CO2 in RPMI 1640 (InVitrogen) supplemented with 10% heat-inactivated FBS, 2 mM L-glutamine, 100 units/ml penicillin G, 100 μg/ml streptomycin, and 0.05 mM 2-ME.
Thioglycollate-elicited macrophages were isolated from the peritoneal cavity of wild-type or mice deficient in TLR2 or C5aR (Hajishengallis et al., 2006, Cell. Microbiol., 8:1557-70; Zhang et al., 2007, Blood, 110:228-36) in compliance with established institutional policies and federal guidelines. Both BALB/c and C57BL/6 C5aR-deficient mice were used (with their respective wild-type controls): The BALB/c mice were obtained from The Jackson Laboratory; and the C57BL/6 C5aR-deficient mice were originally provided by Dr. Craig Gerard (Harvard Medical School) and are now housed at The Jackson Laboratory. The TLR2-deficient mice were originally C57BL/6 (The Jackson Laboratory) and were backcrossed for nine generations onto a BALB/c genetic background before their use in these studies. […]

B1: C5a: mouse C5a anaphylatoxin, purchased from Cell Sciences or R&D Systems (protein)
chain: NLHLLRQKIEEQAAKYKHSVPKKCCYDGARVNFYETCEERVARVTIGPLCIRAFNECCTIANKIRKESPHKPVQLGR
intracellular Ca^2+ mobilization [1]: comparable intracellular Ca^2+ mobilization | P. gingivalis phagocytosis ([2]; C5a 50 nM or C3a 200 nM, 30-min incubation): not significantly affected | expression of macrophage receptors CD14, TLR2, CD11b/CD18 ([2]; C5a 50 nM, 30 min or 24 hours): essentially unaffected | IL-6 production in P. gingivalis-stimulated macrophages [3]: up-regulation of IL-6 production | inhibition of P. gingivalis-induced IL-12p70 ([4]; 10 nM): already effective | P. gingivalis-induced IL-12p70 production ([4]; C5a 50 nM, 24 h): significantly inhibited | LPS-induced IL-12p70 production ([4]; C5a 50 nM, E. coli LPS 0.1 μg/ml, 24 h): significantly inhibited | expression of negative regulators of TLR signaling with P. gingivalis and C5a [5]: no synergistic or additive effects | ability of neutrophils to kill Pg [6]: inhibited | oxidative burst response [6]: enhanced | inhibiting nitric oxide, C5a vs C5a^desArg ([7]; 10 nM): stronger effects than C5a^desArg | production of nitric oxide in P. gingivalis-stimulated macrophages ([7]; C5a 50 nM, unprimed or IFN-gamma-primed, 24 hours): significantly inhibited | elevating cAMP, C5a vs C5a^desArg ([8]; 10 nM): stronger effects than C5a^desArg | elevation of intracellular cAMP, C5a + P. gingivalis relative to P. gingivalis alone ([8]; C5a 50 nM, Pg MOI=10:1): > 3 fold | cAMP difference AMD+C5a+Pg vs. AMD+Pg ([8]; CXCR4 blockade by AMD3100 1 μg/ml): > 6 fold | cAMP response to C5a by itself ([8]; macrophages without P. gingivalis): failed to induce a cAMP response | promoting intracellular survival, C5a vs C5a^desArg ([9]; 10 nM): stronger effects than C5a^desArg | intracellular survival of P. gingivalis in macrophages (viable counts of internalized bacteria) ([9]; Pg MOI=10:1, C5a 50 nM or C3a 200 nM, 24 or 48 hours post-infection): significantly promoted | Pg CFU with C5a in the absence of inhibitors ([9]; macrophages with Pg and C5a, 24 hours postinfection, FIG. 2D dashed line): 13.7±2.7 [×10^4] CFU | ability of neutrophils to kill Pg [10]: inhibited | oxidative burst response [10]: enhanced | intracellular Ca^2+ mobilization [11]: only C5a was active | Ser9-phosphorylation of GSK3β by C5a itself [12]: only slightly increased | cell viability compared to medium-only treatments [13]: None of the experimental treatments, including treatments with C5a up to 100 nM, affected cell viability

B2: C5a^desArg: desarginated form of mouse C5a (protein)
chain: NLHLLRQKIEEQAAKYKHSVPKKCCYDGARVNFYETCEERVARVTIGPLCIRAFNECCTIANKIRKESPHKPVQLG
intracellular Ca^2+ mobilization [1]: comparable intracellular Ca^2+ mobilization | inhibition of P. gingivalis-induced IL-12p70 ([4]; 10 nM): not | inhibition of P. gingivalis-induced IL-12p70 ([4]; 50 nM): significant (p<0.05) inhibition | inhibiting nitric oxide, C5a vs C5a^desArg ([7]; 50 nM): no significant differences | elevating cAMP, C5a vs C5a^desArg ([8]; 50 nM): no significant differences | promoting intracellular survival, C5a vs C5a^desArg ([9]; 50 nM): no significant differences | intracellular Ca^2+ mobilization [11]: only C5a was active

Source: patent US20160084820A1, “METHODS OF TREATING OR PREVENTING PERIODONTITIS AND DISEASES ASSOCIATED WITH PERIODONTITIS” (priority 2010, published 2016)
